Laboratory results as given in patent publication US20180155451A1 (published 2018).

Assays:
[1] = target: T1, FcgRIIIa F extracellular domain with C-terminal His tag (human, UniProt P08637 17-208); experiment: SPR (Biacore), antibody captured on chip, FcγR extracellular domain as analyte, kinetic analysis
T1 construct: extracellular domain; also called FcγRIIIa F; FcγRIIIa (F158); not shown: His tag attached to the C terminus
Experimental: (§1) Analysis of interaction between obj ective antibody and the FcγR was carried out using Biacore T100 (GE Healthcare), Biacore T200, Biacore A100, and Biacore 4000. HBS-EP+ (GE Healthcare) was used as the running buffer, and the measurement temperature was set to 25° C. Chips produced by immobilizing the antigen peptide by the amine coupling method to a Series S sensor Chip CM5 (GE Healthcare), chips produced by allowing preliminarily biotinylated antigen peptides to interact with and immobilize onto a Series S Sensor Chip SA (certified) (GE Healthcare), chips produced by immobilizing Protein L (ACTIGEN, BioVision) to Series S Sencor Chip CM5 (GE Healthcare), or chips produced by immobilizing Protein A/G (Thermo Scientific) to Series S Sencor Chip CM5 (GE Healthcare) were used. Antibodies of interest were captured onto these chips, and allowed to interact to each FcγR diluted with running buffer. To regenerate and repeatedly use the chip, the antibodies captured onto the chip were washed off by reacting 10 mM glycine-HCl, pH 1.5.

[2] = target: T2, FcgRIIIa V extracellular domain with C-terminal His tag (human, UniProt P08637 17-208); experiment: as above
T2 construct: extracellular domain; also called FcγRIIIa V; FcγRIIIa (V158); not shown: His tag attached to the C terminus
T2 sequence (P08637 17-208 F176V): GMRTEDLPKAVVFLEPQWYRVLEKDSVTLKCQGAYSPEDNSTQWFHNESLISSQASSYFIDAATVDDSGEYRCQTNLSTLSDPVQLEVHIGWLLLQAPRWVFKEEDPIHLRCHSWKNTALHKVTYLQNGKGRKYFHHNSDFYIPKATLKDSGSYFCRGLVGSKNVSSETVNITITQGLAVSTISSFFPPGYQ
Experimental: as §1

T1 sequence (P08637 17-208): as the sequence (P08637 17-208 F176V) above, with V160F counted along it

| Kd [1] [nM] | Kd [2] [nM] | Binder |
| --- | --- | --- |
| 660 | 86 | H240-Kn061/H240-Hl134/L73-k0 (antibody, human IgG1, kappa, L234Y/L235Y/G236W/H268D/S298A in both H chains (called homodimerized); also called H240-Kn061/H240-HI134/L73-k0) heavy 1: QDQLVQSGAEVKKPGASVKVSCKASGFNIKDTYIQWVRQAPGQGLEWMGRIDPLRKQTKYREKFEGRVTITADTSTNTAYMELSSLRSEDTAVYYCVRSGREFDYWGQGTLVTVSSASTKGPSVFPLAPSSKSTSGGTAALGCLVKDYFPEPVTVSWNSGALTSGVHTFPAVLQSSGLYSLSSVVTVPSSSLGTQTYICNVNHKPSNTKVDKKVEPKSCDKTHTCPPCPAPEYYWGPSVFLFPPKPKDTLMISRTPEVTCVVVDVSDEDPEVKFNWYVDGVEVHNAKTKPREEQYNATYRVVSVLTVLHQDWLNGKEYKCKVSNKALPAPIEKTISKAKGQPREPQVCTLPPSRDELTKNQVSLWCLVKGFYPSDIAVEWESNGQPENNYKTTPPVLDSDGSFFLYSKLTVDKSRWQQGNVFSCSVMHEALHNHYTQKSLSLSP heavy 2: QDQLVQSGAEVKKPGASVKVSCKASGFNIKDTYIQWVRQAPGQGLEWMGRIDPLRKQTKYREKFEGRVTITADTSTNTAYMELSSLRSEDTAVYYCVRSGREFDYWGQGTLVTVSSASTKGPSVFPLAPSSKSTSGGTAALGCLVKDYFPEPVTVSWNSGALTSGVHTFPAVLQSSGLYSLSSVVTVPSSSLGTQTYICNVNHKPSNTKVDKKVEPKSCDKTHTCPPCPAPEYYWGPSVFLFPPKPKDTLMISRTPEVTCVVVDVSDEDPEVKFNWYVDGVEVHNAKTKPREEQYNATYRVVSVLTVLHQDWLNGKEYKCKVSNKALPAPIEKTISKAKGQPREPQVYTLPPSRCELTKNQVSLSCAVKGFYPSDIAVEWESNGQPENNYKTTPPVLDSDGSFFLVSKLTVDKSRWQQGNVFSCSVMHEALHNHYTQKSLSLSP light: DIQMTQSPSSLSASVGDRVTITCRASQDIHKYIAWYQQKPGQAPRLLIQYTSTLQPGVPSRFSGSGSGTDYTFTISSLQPEDIATYYCLQYEQLRTFGGGTKVEIKRTVAAPSVFIFPPSDEQLKSGTASVVCLLNNFYPREAKVQWKVDNALQSGNSQESVTEQDSKDSTYSLSSTLTLSKADYEKHKVYACEVTHQGLSSPVTKSFNRGEC |
| 77 | 16 | H240-Kn132/H240-Hl071/L73-k0 (antibody, human IgG1, kappa, K326D/A330M/K334E in both H chains (called homodimerized); also called H240-Kn132/H240-HI071/L73-k0) heavy 1: QDQLVQSGAEVKKPGASVKVSCKASGFNIKDTYIQWVRQAPGQGLEWMGRIDPLRKQTKYREKFEGRVTITADTSTNTAYMELSSLRSEDTAVYYCVRSGREFDYWGQGTLVTVSSASTKGPSVFPLAPSSKSTSGGTAALGCLVKDYFPEPVTVSWNSGALTSGVHTFPAVLQSSGLYSLSSVVTVPSSSLGTQTYICNVNHKPSNTKVDKKVEPKSCDKTHTCPPCPAPELLGGPSVFLFPPKPKDTLMISRTPEVTCVVVDVSHEDPEVKFNWYVDGVEVHNAKTKPREEQYNSTYRVVSVLTVLHQDWLNGKEYKCKVSNDALPMPIEETISKAKGQPREPQVCTLPPSRDELTKNQVSLWCLVKGFYPSDIAVEWESNGQPENNYKTTPPVLDSDGSFFLYSKLTVDKSRWQQGNVFSCSVMHEALHNHYTQKSLSLSP heavy 2: QDQLVQSGAEVKKPGASVKVSCKASGFNIKDTYIQWVRQAPGQGLEWMGRIDPLRKQTKYREKFEGRVTITADTSTNTAYMELSSLRSEDTAVYYCVRSGREFDYWGQGTLVTVSSASTKGPSVFPLAPSSKSTSGGTAALGCLVKDYFPEPVTVSWNSGALTSGVHTFPAVLQSSGLYSLSSVVTVPSSSLGTQTYICNVNHKPSNTKVDKKVEPKSCDKTHTCPPCPAPELLGGPSVFLFPPKPKDTLMISRTPEVTCVVVDVSHEDPEVKFNWYVDGVEVHNAKTKPREEQYNSTYRVVSVLTVLHQDWLNGKEYKCKVSNDALPMPIEETISKAKGQPREPQVYTLPPSRCELTKNQVSLSCAVKGFYPSDIAVEWESNGQPENNYKTTPPVLDSDGSFFLVSKLTVDKSRWQQGNVFSCSVMHEALHNHYTQKSLSLSP light: DIQMTQSPSSLSASVGDRVTITCRASQDIHKYIAWYQQKPGQAPRLLIQYTSTLQPGVPSRFSGSGSGTDYTFTISSLQPEDIATYYCLQYEQLRTFGGGTKVEIKRTVAAPSVFIFPPSDEQLKSGTASVVCLLNNFYPREAKVQWKVDNALQSGNSQESVTEQDSKDSTYSLSSTLTLSKADYEKHKVYACEVTHQGLSSPVTKSFNRGEC |
